Experiment [1] has as its target T1, B7-H4 fusion protein Variant 1: IgV residues 29-149 of SEQ ID NO:1 (human, UniProt Q7Z7D3 29-149).
T1 construct: Human IgG1 Fc fusion protein; also called IgV only; not shown: human IgG1 Fc
T1 chain: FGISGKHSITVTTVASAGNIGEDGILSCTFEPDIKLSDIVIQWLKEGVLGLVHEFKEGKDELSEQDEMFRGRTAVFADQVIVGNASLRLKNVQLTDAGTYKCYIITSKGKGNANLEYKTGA
Nature of the experiment: ELISA, B7-H4 Fc fusion protein immobilized at 1 µg/ml, mouse antibody titrated, anti-mouse Ig HRP. On the procedure: (§1) 100 μl 1 μg/ml human IgG1 Fc fusion proteins diluted in PBS consisting of different segments of B7-H4 Extracellular domains were immobilized on flat bottom 96 well plates (Costar 9017) overnight at 4° C. […] Plates were washed twice with PBS+0.1% PS-20 and blocked with 200 μl/well PBS 10% FBS at RT for 1 hr. A titration of mouse anti-human B7-H4 antibodies 2H9, 2D1, 2E11, 6H3, 8E11 or H74 diluted in PBS 10% FBS were added to the plates and incubated at RT for 1 hr. Plates were washed three times and 100 μl 1 μg/ml anti-mouse Ig HRP (Sigma) was added to each well and incubated at RT for 1 hr. Plates were washed six times and 100 μl TMB substrate (SurModics) was added to each well for 5-15 mins. 100 μl stop solution (0.1M Sulfuric acid) was added to each well. Plates were read at Absorbance 450 nm by PerkinElmer EnVision 2104 Multilabel Reader.

Experiment [2] concerns the target T2, B7-H4 fusion protein Variant 3: IgV residues 29-158 of SEQ ID NO:1 (human, UniProt Q7Z7D3 29-158).
T2 construct: Human IgG1 Fc fusion protein; also called IgV only; not shown: human IgG1 Fc
T2 chain: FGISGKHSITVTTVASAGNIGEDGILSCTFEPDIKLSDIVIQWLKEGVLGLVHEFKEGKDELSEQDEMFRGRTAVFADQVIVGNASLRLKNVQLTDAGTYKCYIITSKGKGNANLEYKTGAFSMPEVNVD
Described as above. On the procedure: as §1

In experiment [3] the target is T3, B7-H4 fusion protein Variant 2: IgV residues 29-154 of SEQ ID NO:1 (human, UniProt Q7Z7D3 29-154).
T3 construct: Human IgG1 Fc fusion protein; also called IgV only; not shown: human IgG1 Fc
T3 chain: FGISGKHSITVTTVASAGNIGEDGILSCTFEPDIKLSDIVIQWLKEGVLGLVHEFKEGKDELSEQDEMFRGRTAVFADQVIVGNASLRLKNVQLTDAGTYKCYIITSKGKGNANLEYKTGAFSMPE
The experiment is described as above. On the procedure:
as §1

A further experiment deals with T4, B7-H4-Ig fusion protein (human).
T4 construct: also called human B7-H4 Ig
T4 sequence (chain, as listed by the source limits assumed): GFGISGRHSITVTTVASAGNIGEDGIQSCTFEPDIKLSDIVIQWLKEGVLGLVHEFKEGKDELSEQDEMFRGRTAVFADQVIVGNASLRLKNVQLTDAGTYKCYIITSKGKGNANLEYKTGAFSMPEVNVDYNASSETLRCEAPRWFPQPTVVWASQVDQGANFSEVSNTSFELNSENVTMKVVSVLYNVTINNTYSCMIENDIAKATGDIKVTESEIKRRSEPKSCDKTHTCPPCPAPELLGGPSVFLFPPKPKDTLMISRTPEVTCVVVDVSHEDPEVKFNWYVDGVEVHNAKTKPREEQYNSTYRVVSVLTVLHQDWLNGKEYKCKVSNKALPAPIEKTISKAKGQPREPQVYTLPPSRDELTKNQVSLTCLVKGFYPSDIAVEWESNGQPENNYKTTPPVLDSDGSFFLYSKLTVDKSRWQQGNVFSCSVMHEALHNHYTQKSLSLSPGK
Nature of the experiment: ELISA, B7-H4 Ig coated on the plate, purified antibody, HRP goat anti-mouse. On the procedure: B7-H4 Ig was coated onto microtiter plates, washed, blocked, and washed again. Varying concentrations of anti-B7-H4 antibodies were allowed to bind. Purified proteins were used for clones H74, 6H3, and 8E11. Conditioned media from hybridomas 2D1, 2H9, and 2E11 were used. Following incubation, the plates were washed. Bound anti-B7-H4 was detected using HRP-conjugated goat anti-mouse (Jackson ImmunoResearch).

For experiment [4], the target named is T5, human B7-H4 expressed on cells (human, UniProt Q7Z7D3 25-282).
T5 construct: the cell line is named under assay or readout; also called full length human B7-H4 on HEK293 cells; 293T.hB7-H4
T5 sequence: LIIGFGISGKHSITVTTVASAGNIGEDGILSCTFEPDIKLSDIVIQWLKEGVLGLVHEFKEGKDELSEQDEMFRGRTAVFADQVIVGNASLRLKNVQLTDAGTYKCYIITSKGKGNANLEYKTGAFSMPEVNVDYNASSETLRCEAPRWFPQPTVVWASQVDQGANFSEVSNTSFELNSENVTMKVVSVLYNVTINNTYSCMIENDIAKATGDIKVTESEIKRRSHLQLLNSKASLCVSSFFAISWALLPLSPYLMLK
Nature of the experiment: flow cytometry on HEK293 cells expressing full length human B7-H4, labelled secondary antibody, 20 min at 4 C. On the procedure:
In order to determine the kinetics of binding of antibody 6H3 binding to B7-H4, with HEK293 cells that expressed full length human B7-H4 were incubated (for 20 minutes at 4° C. with 1×10⁵ in 200 μl wells) in the presence of varying concentrations of antibody (0, 0.01 ng, 0.03 ng, 0.1 ng, 0.3 ng, 1 ng, 10 ng, 30 ng, 100 ng, 300 ng, 1000 ng, 3000 ng, 10000 ng, or 30000 ng) in RPMI complete media (10% FBS). Binding was analyzed (FACS Canto II) using a FACS staining plate after incubation with a secondary antibody (anti-human Ig PE, anti-mouse Ig APC, anti-hamster Ig PE or anti-rat Ig PE).

B1: murine anti-human B7-H4 antibody 6H3 (antibody, V domains shown)
VH: EVQLQQSGPVLVKPGTSVKMSCKASGYTFTDYYMNWVKQSHGKSLEWIGVINPYNGDTTYNQKFKGKATLTVDKSSSTAYMEVNSLTFEDSAVYYCARYPESTYWGQGTLVTVSA
VL: DVVMTQTPLSLPVSLGDQASISCRSSQSLVHINGNTYLHWYLQKPGQSPKVLIYKVSNRFSGVPDRFSGSGSGTDFTLKISRVEAEDLGVYFCSQSTHVPLTFGAGTKLELK
notes: Mouse monoclonal antibody; also called clone 6H3; mouse anti-human B7-H4 6H3
With B1, the binding result in experiment [1], in experiment [2] and in experiment [3] was “no binding (tested: 16 ng/ml)” throughout. In addition, the “EC50 (read off the curve)” value with B7-H4-Ig fusion protein is roughly 10 ng/mL; in experiment [4] it was roughly 6 nM.

Source of the values: patent publication US20150315275A1 (AstraZeneca / MedImmune, published 2015).
